Five molecules from patent publication US20230203098A1 (published 2023) can be followed below.

*1 amine or outer side, *2 acyl side, *3 side chain or, on linkers, in order; H or OH if unused. Bridges are numbered along the chain shown (N, C = ends). Primed or numbered codes have the meaning given here. Where no end group is shown, it is not given here. [ ]: non-standard residue; d: D form. Tyr(Me) = COc1ccc(C[C@H](N[*:1])C(=O)[*:2])cc1; NMePhe(3-Cl) = CN[C@@H](Cc1cccc(Cl)c1)C(=O)O; NMeW = CN[C@@H](Cc1c[nH]c2ccccc12)C(=O)O; NMeY = CN[C@@H](Cc1ccc(O)cc1)C(=O)O; PEG11′ = not defined here; Aib = CC(C)(N)C(=O)O

As usually defined, the Kd is the free concentration of one partner at which half of the binding sites on the other are occupied at equilibrium, for simple one-to-one binding. A low value points to tighter binding.

Assay [1] has as its target T1, human transferrin receptor (hTfR) (human, UniProt P02786 89-760, limits assumed).
T1 construct: hTfR solution immobilised on NTA chip (Ni capture plus EDC/NHS); also called human TfR
As to the kind of experiment: SPR in accordance with Example 2. How it is done:
(§1) For each of the various synthesized peptides, the intermolecular interaction of the peptide with the transferrin receptor (hTfR) was tested by surface plasmon resonance (SPR) according to the following method. The specific test method is as follows.
(§2) An NTA sensor chip (Global Life Sciences Technologies Japan) was inserted in a Biacore T200 (Global Life Sciences Technologies Japan) and a prime operation was performed 3 times with a running buffer: 10 mM HEPES pH 8.0 (Nacalai Tesque), 150 mM NaCl (Nacalai Tesque), 0.05% Tween 20 (Nacalai Tesque), 0.1% BSA (Sigma-Aldrich), 1.0% DMSO (FUJIFILM Wako Pure Chemical) to create an Equilibration state at a flow rate of 30 µL/min. After reacting with 350 mM EDTA solution for 60 seconds at a flow rate of 10 µL/min then reacting with 0.5 mM NiCl₂ solution (Kishida Chemical) for 60 seconds at a flow rate of 10 µL/min, the NTA sensor chip was washed with 3 mM EDTA solution (Nacalai Tesque) for 60 seconds at a flow rate of 10 µL/min. After mixing 50 µL each of 60 mM EDC solution (Global Life Sciences Technologies Japan) and 650 mM NHS solution (Global Life Sciences Technologies Japan), the mixture was reacted for 420 seconds at a flow rate of 10 µL/min. […] An obtained sensorgram was subjected to curve fitting using the least-squares method, and the binding of the peptide to hTfR was evaluated by obtaining KD values.

Assay [2] deals with T1, human transferrin receptor (hTfR). Description: SPR according to Example 2. The protocol: as §1, §2
Assay [3] has the same target. Description: SPR, hTfR immobilised. How it is done:
An NTA sensor chip (Global Life Sciences Technologies Japan) was inserted in a Biacore T200 (Global Life Sciences Technologies Japan) and a prime operation was performed 3 times with a running buffer: 10 mM HEPES pH 8.0 (Nacalai Tesque), 150 mM NaCl (Nacalai Tesque), 0.05% Tween 20 (Nacalai Tesque), 0.1% BSA (Sigma-Aldrich), 1.0% DMSO (FUJIFILM Wako Pure Chemical) to create an Equilibration state at a flow rate of 30 µL/min. After reacting with 350 mM EDTA solution for 60 seconds at a flow rate of 10 µL/min then reacting with 0.5 mM NiCl₂ solution (Kishida Chemical) for 60 seconds at a flow rate of 10 µL/min, the NTA sensor chip was washed with 3 mM EDTA solution (Nacalai Tesque) for 60 seconds at a flow rate of 10 µL/min. After mixing 50 µL each of 60 mM EDC solution (Global Life Sciences Technologies Japan) and 650 mM NHS solution (Global Life Sciences Technologies Japan), the mixture was reacted for 420 seconds at a flow rate of 10 µL/min. By diluting with the running buffer, 150 µL of 3.2 µM hTfR solution was prepared and used for reaction for 600 seconds at a flow rate of 10 µL/min, thereby immobilizing hTfR on the NTA sensor chip. […] An obtained sensorgram was subjected to curve fitting using the least-squares method, and the binding of the peptide to hTfR was evaluated by obtaining KD values.
A general note: Surface plasmon resonance follows binding to a sensor surface in real time, without labels.

T1 sequence (P02786 89-760 limits assumed): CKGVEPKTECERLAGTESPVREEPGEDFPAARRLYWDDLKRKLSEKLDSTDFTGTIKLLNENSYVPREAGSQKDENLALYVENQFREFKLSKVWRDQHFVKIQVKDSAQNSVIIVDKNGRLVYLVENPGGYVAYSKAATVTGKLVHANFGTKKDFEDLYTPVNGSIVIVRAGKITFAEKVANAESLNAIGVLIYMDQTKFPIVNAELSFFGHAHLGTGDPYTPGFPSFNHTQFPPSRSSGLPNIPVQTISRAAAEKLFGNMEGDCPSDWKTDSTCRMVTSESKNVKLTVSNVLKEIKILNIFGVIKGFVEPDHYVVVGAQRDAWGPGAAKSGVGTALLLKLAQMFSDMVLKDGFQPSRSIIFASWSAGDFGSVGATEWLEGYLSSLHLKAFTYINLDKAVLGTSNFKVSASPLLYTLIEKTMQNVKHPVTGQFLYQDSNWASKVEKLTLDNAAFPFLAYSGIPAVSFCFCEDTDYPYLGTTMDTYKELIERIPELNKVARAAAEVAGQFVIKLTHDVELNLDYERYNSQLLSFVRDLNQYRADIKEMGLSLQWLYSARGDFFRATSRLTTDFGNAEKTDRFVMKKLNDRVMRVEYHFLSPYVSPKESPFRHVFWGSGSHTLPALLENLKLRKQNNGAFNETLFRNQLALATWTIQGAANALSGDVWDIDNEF

B1: JCR_hTfR_000894_PEG11_K(FITC) (peptide)
peptide: AVFVWNYYIIRRYYC
modifications: 14 MeTyr; C-term PEG11-K(FITC); cyclic 1-15 thioether
Molecule B1 displayed a Kd in assay [1] of 0.28 nM.

B2: hTfRNo.894FLIP-vivotag750 (peptide)
peptide: {CH2CO}-A[NMeY]YRRIIYYNWVFVC-{PEG11′-VivoTag750}
modifications: thioether N-15 (inferred); not fully specified; printed as ClAc-Ala-MeTyr-Tyr-Arg-Arg-Ile-Ile-Tyr-Tyr-Asn-Trp-Val-Phe-Val-Cys
notes: also called hTfRNo.894FLIP-PEG11-Vivotag750
For B2, the binding result in assay [2] was “no binding”.

B3: hTfR_000894_PEG11_(VivoTag) (peptide)
peptide: {CH2CO}-AVFVWNYYIIRRY[NMeY]C
modifications: thioether N-15; not fully specified (C-terminus); also: linker PEG11 in text, PEG12 in table
notes: also called hTfRNo.894-vivotag750; hTfRNo.894-PEG11-Vivotag750
Turning to B3, binding in assay [2] was put at a Kd of 1.09 nM.

B4: FLIP_000894_PEG11_K_FITC (peptide)
peptide: {CH2CO}-A[NMeY]YRRIIYYNWVFVC-{PEG11′-K(FITC)}
modifications: thioether N-15
For B4, the binding result in assay [3] is listed as “no binding”.

B5: Flip_894_PEG4_KFITC (peptide)
peptide: {CH2CO}-A[NMeY]F[dR][Aib]IY[Tyr(Me)]YN[NMeW]V[NMePhe(3-Cl)]VC
modifications: thioether N-15; not fully specified (C-terminus); also: PEG4c not defined
notes: also called Flip894_variant61_PEG4dk5FAM; Flip894_variant61_PEG4dk5FA
As for B5, the binding result in assay [3] was “no binding”.
